How the values were obtained:
[1] = biological target: full-length PCV2 capsid protein (porcine circovirus type 2) (UniProt O56129); test: cryo-EM structure; in vitro assembled full-length PCV2 VLP, 300 kV Titan Krios, icosahedral reconstruction at 4.12 Å
[2] = biological target: PCV2-His-ΔN45 capsid protein (porcine circovirus type 2) (UniProt O56129); test: crystal structure; PCV2-His-ΔN45 at ~12 mg/ml, crystals from 2 M ammonium sulfate, 0.1 M citric acid pH 4.6; one icosahedral particle per asymmetric unit; 2.8 Å

“full-length PCV2 capsid protein (from UniProt O56129 1-233) (natural protein)” gave a stoichiometry N [1] of 60 subunits.

In the case of “PCV2-His-ΔN45 capsid protein (from UniProt O56129 45-233) (domain or fragment)”, the stoichiometry N [2] is reported as 60 subunits.
